In the RNAGym collection of RNA variant scans (doi:10.7554/elife.90254):

B1: OR4K15 (parent)
chain: GUUAACGGUCAUAGGCCAUGGAAACUAGGAGCACCAUUUCGCUGCCAGUGAAGAAAUGAACAAAGAAAAUCUGGGCCAGGCAGGCAUCAAAAGAAAUAGUCUUGCGCUCAACCAGAAAGUCUGUAAUCAUUUUAAGGGUA

Variants of: B1
Assay: self-cleavage, relative activity (ratio to wild type); higher = more cleavage; in vitro, sequencing; the parent is a self-cleaving ribozyme

Compared with U39A A118G, U49G A68G is higher in self-cleavage: 1.28 for the first, 1.76 for the second.

Going from U127C U130A to G80A U132C, the self-cleavage falls from 0.35 to 0.08.

First: A5G U127C
Second: A89G A95G
The self-cleavage of the first is lower: 0.8 for the first, 1.87 for the second.

Compared with A47U G106U, A36U U124C is higher in self-cleavage: 0.01 for the first, 1.26 for the second.

Compared with U72C A111G, A92C U131C is higher in self-cleavage: 0.02 for the first, 1.35 for the second.

First: U26C U139A
Second: C10U A56G
The self-cleavage of the first is higher: 1.49 for the first, 0.84 for the second.

Compared with G21A A114U, A68G U100C is higher in self-cleavage: 0.05 for the first, 1.42 for the second.

Going from A5G U38G to A59G A96G, the self-cleavage rises from 1.02 to 1.66.

Going from A95G U100C to A111C A135U, the self-cleavage falls from 2.52 to 0.03.

First: A24C A90G
Second: U49C A52G
The self-cleavage of the first is lower: 0.69 for the first, 1.16 for the second.

First: U72A A140G
Second: A86C A114G
The self-cleavage of the first is higher: 0.32 for the first, 0.24 for the second.

Compared with U49C G119A, A4U A95G is higher in self-cleavage: 1.6 for the first, 1.65 for the second.

First: U122C A135G
Second: C16A U127C
The self-cleavage of the first is higher: 1.24 for the first, 0.13 for the second.

First: A33U A78G
Second: A54U U103C
The self-cleavage of the first is lower: 0.29 for the first, 1.26 for the second.

Going from A60U C113U to C112U U122A, the self-cleavage falls from 0.27 to 0.01.

First: A13U G79A
Second: A90G U122C
The self-cleavage of the first is lower: 0.19 for the first, 0.65 for the second.

First: A24G A125C
Second: C45G
The self-cleavage of the first is lower: 0.4 for the first, 1.37 for the second.

Going from U9A A111U to A30G U39C, the self-cleavage rises from 0.19 to 1.05.

Going from A111G U139C to A91U U120C, the self-cleavage rises from 0.01 to 1.64.

Going from A55U A64G to A11G U103C, the self-cleavage falls from 1.76 to 0.95.

Compared with G15C A111U, C77A A96G is higher in self-cleavage: 0.11 for the first, 1 for the second.

First: U72A A135U
Second: A52G U122C
The self-cleavage of the first is lower: 0.14 for the first, 1.45 for the second.

Going from U103C G104U to G58U A64G, the self-cleavage rises from 0.03 to 1.2.

Going from U19A U131G to A62G U122C, the self-cleavage falls from 2.03 to 1.27.

Compared with A18G A96U, A64G A111U is lower in self-cleavage: 1.84 for the first, 0.1 for the second.

Going from A64G A111G to A78G U108C, the self-cleavage falls from 0.05 to 0.01.

Going from U2A U39C to A13G A126G, the self-cleavage falls from 1.26 to 1.04.

Compared with A67G A110U, A5G A92U is lower in self-cleavage: 1.46 for the first, 0.95 for the second.

First: A60G A125U
Second: A63U U103A
The self-cleavage of the first is higher: 2.64 for the first, 0.49 for the second.

Compared with A69G A91G, A36C G104A is lower in self-cleavage: 1.21 for the first, 0.03 for the second.

Compared with G79A A129G, A62G A117C is higher in self-cleavage: 0.17 for the first, 0.69 for the second.

First: A110U A135G
Second: A51C A117U
The self-cleavage of the first is higher: 1.63 for the first, 1.28 for the second.

Going from U108C U124A to A68G U87C, the self-cleavage rises from 0.01 to 1.12.

First: A24G A54G
Second: U37A A52G
The self-cleavage of the first is lower: 1.12 for the first, 2.37 for the second.

First: G8A
Second: G44A
The self-cleavage of the first is higher: 1.61 for the first, 1.53 for the second.

Compared with U72C A95G, C32U U57C is higher in self-cleavage: 0.35 for the first, 1.07 for the second.

Compared with U57A G136A, C32U U102C is higher in self-cleavage: 1.37 for the first, 1.73 for the second.

First: A11C A22G
Second: A51U A78U
The self-cleavage of the first is higher: 0.94 for the first, 0.36 for the second.

Compared with A4G A96G, A60G A86G is lower in self-cleavage: 1.4 for the first, 1.36 for the second.

Going from A60U G106C to A54G A94G, the self-cleavage rises from 0 to 1.2.

Going from A47U A95G to A51G A62G, the self-cleavage falls from 1.25 to 0.33.

Going from A11G U97C to U43A A135C, the self-cleavage falls from 1.42 to 1.29.

Going from A52G A140G to G41A A51C, the self-cleavage falls from 1.63 to 1.57.

Going from U39G to G14A U122A, the self-cleavage rises from 0.79 to 1.16.

Going from A62G U103C to G21A A140G, the self-cleavage rises from 0.98 to 1.48.

First: A59G A125G
Second: U103C U120A
The self-cleavage of the first is lower: 0.4 for the first, 1.55 for the second.

First: G106A U124C
Second: G44C A78G
The self-cleavage of the first is lower: 0.01 for the first, 0.52 for the second.

Going from A22U U72A to A59G A118G, the self-cleavage rises from 0.21 to 0.75.

First: G21U U122A
Second: U57A A59U
The self-cleavage of the first is lower: 1.42 for the first, 2.2 for the second.

First: G14U A33U
Second: U9G A24G
The self-cleavage of the first is lower: 1.38 for the first, 1.4 for the second.

Going from A13U A36G to U3C U132A, the self-cleavage rises from 0.89 to 1.58.

Compared with G44A U124A, U49C A114C is lower in self-cleavage: 1.15 for the first, 0.03 for the second.

First: A11G A51G
Second: A11G G41A
The self-cleavage of the first is higher: 1.15 for the first, 0.82 for the second.

First: A33G U72A
Second: U2C U19C
The self-cleavage of the first is lower: 0.12 for the first, 0.96 for the second.

Going from U103C U122A to C46A A118U, the self-cleavage falls from 1.14 to 0.26.

First: A23G G53A
Second: U97C U122A
The self-cleavage of the first is higher: 1.7 for the first, 1.65 for the second.

First: A66U A135U
Second: U3C A126U
The self-cleavage of the first is lower: 0.74 for the first, 0.79 for the second.

Going from A86G A91C to A98U A135G, the self-cleavage rises from 0.64 to 2.4.

First: A13U U122C
Second: A95C G137U
The self-cleavage of the first is lower: 0.56 for the first, 1.17 for the second.

First: A30G U100C
Second: C40G G74A
The self-cleavage of the first is higher: 1.93 for the first, 0.29 for the second.

First: U38C U102C
Second: C46U
The self-cleavage of the first is higher: 1.91 for the first, 1.54 for the second.

Going from A98G A135C to U3C A95G, the self-cleavage rises from 0.44 to 1.02.

First: A55U A98G
Second: A22G G136A
The self-cleavage of the first is lower: 0.19 for the first, 0.6 for the second.

Going from U3C A52G to G83A U122C, the self-cleavage rises from 1.1 to 1.87.

Compared with U39A U72G, A18G C40U is higher in self-cleavage: 0.3 for the first, 1.66 for the second.

First: U3C A110G
Second: A55C A129G
The self-cleavage of the first is lower: 0.19 for the first, 1.2 for the second.

Compared with A68G U130C, A90C U120A is higher in self-cleavage: 1.13 for the first, 1.88 for the second.

Compared with A22U A68G, G14A U43C is higher in self-cleavage: 0.93 for the first, 0.99 for the second.

Compared with U38C A94U, G41A A135G is lower in self-cleavage: 2.15 for the first, 0.99 for the second.

Compared with C76A U131C, A60G A89G is higher in self-cleavage: 0.08 for the first, 1.55 for the second.

First: A64C A82U
Second: A59U U120C
The self-cleavage of the first is lower: 0.26 for the first, 1.78 for the second.

Compared with C25U U72A, G29C U108A is lower in self-cleavage: 0.28 for the first, 0.02 for the second.

Going from C81A U103C to A23U A140C, the self-cleavage rises from 0.13 to 1.37.

First: A23U A140G
Second: G14C U103C
The self-cleavage of the first is higher: 1.38 for the first, 1.13 for the second.

Compared with U19G A64G, A47U A126C is lower in self-cleavage: 1.49 for the first, 0.72 for the second.

Compared with A78G C81A, A36G A90C is higher in self-cleavage: 0.1 for the first, 1.15 for the second.

Going from A89U A117G to U57G A129U, the self-cleavage falls from 2.46 to 1.78.

First: A27C U87A
Second: C34A A89G
The self-cleavage of the first is lower: 1.13 for the first, 1.66 for the second.

Compared with A69G C107U, A62G A98U is higher in self-cleavage: 0.03 for the first, 1.39 for the second.

Compared with U72G A96G, A118U U127C is lower in self-cleavage: 0.07 for the first, 0.02 for the second.

First: A51U A52U
Second: U19A U49C
The self-cleavage of the first is higher: 1.99 for the first, 1.38 for the second.

First: A33G C76U
Second: U43A U120C
The self-cleavage of the first is lower: 0.12 for the first, 0.37 for the second.

Going from U37G A111G to A89G A90G, the self-cleavage rises from 0.03 to 0.71.

With U9A A52C the self-cleavage was 2.25.
